Results: the DeepSol protein solubility set

Experiment: soluble on expression in E. coli; label from the status in PepcDB or PDB records

Sequence	soluble on expression in E. coli
MAHHHHHHMAFTGPNPSIWVGGLDPDLQEQKLYDYFVRIGPVTSVRVCVDSATQKSLGYGYVNFQDPADAEKALDQAGSKLGSRYLRIAKIQRDPSKRRSGVNNILVKKLPKSVDTYALKEMFSKFGRLTAIGLACDEKGESRGYARISFEREESAVDAVREMDGMEMDGQAIVVERYQAQHRDELLKQFTNLYVKNLDPAVTDEKLRAFFAKYGEVSSAKVRDLGAAQSEAGLGYVAFQKHENAARAVEELNGKECEIAKAGSPLDVSRFRSREERQRDRERQRRERAQQHSKYPNLYVKGFDDTVTSERLEELFQRYGETVSVTVMMDKETGVSRCFGFVSMKDQNAASQAIQELNGSTFLSPRPLFVTYALRKDARRQNLEERSKQFRVRQNPMGGPGMGAMPPIGFMGPQMFNNVNMPFMNPRVPIMPMNGMNGIGGMNGMGGMNGVGGVGGMGGMGGMGGMGGMGGMGGMGGMGSMGGMGGMARPMAPNAMSQMRSRPMPQKPPMQSLMPQQHQQAPPQGQNLAAVLANLNPEQQKNVLGERLYSYIVRSHPSVAAKITGMLLEMDNAEILNMLDSPTMLDSKIAEAQDVLNRHMSV	soluble
MAHHHHHHMAKKHLKRLYAPKDWMLSKLTGVFAPRPRAGPHKLRECLSLLIIIRNRLKYALNALEAQMILRQGLVCVDGKPRKDGKYPAGFMDVVEIPKTGDRFRILYDVKGRFALVRVSEAESSIKMMKVVNVYTGTGRIPVAVTHDGHRIRYPDPRTSRGDTLVYDVKEKKVLDLIKIGNGKVVMVTGGANRGRIGEIVSIERHPGAFDIARLKDASGHEFATRATNIFVIGKDMSSVPVTLPKQQGLRINVIQEREEKLIAAETRRTTQAHSKRKTKV	not soluble
MAHHHHHHMANAELVDAGCFITQMNELLLIDPLYINCTMTNYCNSYISGKEKLLPRERLNGIYFKNAKPGLWSSFAIRENNQACLKKTSNQETETDAENRNNNNSYNNVRNEMVLSFICFNNTEYMHEYLTVEKVDKLKWEKVKPNESHLRVGQADQYNSTVNIEYKNEKTGIFHHNKNELLPLENYFTNVLTIESGQVGLFCMESIKHSADLLFQKHEMNNISNKEELDNLFNQNMNDLYPWFEKICNLTLSSSVAVVDFIDMPIGCVCLSSSDCVVNYLCEVVRDEVTDEVWAIRVNFLSPLK	soluble
MAHHHHHHMANSRASTLAAAAAAASTAAVKPLSYVSLRSHDGKHVILPVAAAAGSRVLHGIFQGLYVMRLHQCNSPADQPPHAQHEQYPMVEEDAQQGELHIPRSGSSSSSGSDVANKAHGSAEVKVDDPIPIIEDEDDIEEDEARHQVNGAAYRSYAAVFPSNVACVPPPPSPLLSTSPPAAPSPCVPPLLEVPICSLEFSTLMRVAEFLVVKITLASHPHYLHEANVFGDLDRTSERDQLVAMQVLLGADFLNC	not soluble
MAHHHHHHMAPPNGTVCCPEDLKMYSTIQLNQEIEISKNPFPLHEINKKNDIPLCAQEFSDLTDPLYIKKICLEKVPEWNHFTEDNLRVKQILSGLTNQLFEVGLKEETANNYNSIRTRVLFRIYGKHVDELYNTISEFEVYKTMSKYKIAPQLLNTFNGGRIEEWLYGDPLRIDDLKNPTILIGIANVLGKFHTLSRKRHLPEHWDRTPCIFKMMEKWKNQLFKYKNIEKYNCDIHKYIKESDKFIKFMKVYSKSDNLANTIVFCHNDLQENNIINTNKCLRLIDFEYSGFNFLATDIANFFIETSIDYSVSSYPFFEIDKKKYISYENRKLFITAYLSNYLDKSLVVPTPKLIDEILEAVEVQALGAHLLWGFWSIIRGYQTKSYNEFDFFLYAEQRLKMYDDQKEYLISNNI	not soluble
MAHHHHHHMATNPDIETDIPRDVYQFFRGLNRAVERRDAAAMHDLYESQFDALTKNYYMAGHGQFRSWPALRLEQVSSCFRGNHMAELVYSFLFYKHLFMDNRSVRAPDAEGAWKTYSELLPMLKSYELPNWMLWDIFDEFLYQMTVVYQKVFVTEGIWAVPEVSRLLNEVIDNSRLLELVKQPDFLEDIHRGPNTGALSGFYAIVTKSKLNVLLGDYYSALTDLEPLDVYNKGRAVLTRVSPCAVSVFYHIGFSYLMIHRFEDASNAFRRCVTVKLNGRRFSERVQQDAAYMYVCARVLGGMPINNLTSYLDSRKVAAFEDDRESLRTGDEERFRDVFDRCSPKFLTVPPSDGSPVKGSEGRELQARMFRRAVQQQQDIIKLRGYFKVYQNTKMNLLETLLEVDDGYAPLFALKMRSRQLVHDGVTADLLQGVFTSSSEFDCIVQDDNVEVVPSMTFGGIEQKLLNKIKNTQRDIEVAKRKFNQTRNRDEGGNKRKDQRDQKRRPNQQQLHGGVGNNAGSANRSSNNVNRHPRQKMAAQPMTSNLFNRNDN	soluble
MAHHHHHHMATVGDPLFRIHEPTYAFLDCSACIAFAGHLGRRMNESIRYGGRGGATFLSSHRLGKDNKLKRRDYATSELRGAEVLEKICNDSLFDDYALHFRADMRIRVYDNGESEYPLAQHYSKEDSRILKAVKTKAVHVFCTRVMDEEEDAMTSLVREVELLSELEQRLCGGYLEMRNITAPPFPVEKAVTAVCVGVEPSIEAEVRRLEKYEKWQASISKGTSQDKMKGAEGAESVVVKGVQYSKDDPLSFTVLRKPNAKSNGDTTEGGSDAAEDVRKQPDKDSVFMNFDL	not soluble
MAHHHHHHMAVESRSRVTSKLVKAHRAMLNSVTQEDLKVDRLPGADYPNPSKKYSSRTEFRDKTDYIMYNPRPRDEPSSENPVSVSPLLCELAAARSRIHFNPTETTIGIVTCGGICPGLNDVIRSITLTGINVYNVKRVIGFRFGYWGLSKKGSQTAIELHRGRVTNIHHYGGTILGSSRGPQDPKEMVDTLERLGVNILFTVGGDGTQRGALVISQEAKRRGVDISVFGVPKTIDNDLSFSHRTFGFQTAVEKAVQAIRAAYAEAVSANYGVGVVKLMGRDSGFIAAQAAVASAQANICLVPENPISEQEVMSLLERRFCHSRSCVIIVAEGFGQDWGRGSGGYDASGNKKLIDIGVILTEKVKAFLKANKSRYPDSTVKYIDPSYMIRACPPSANDALFCATLATLAVHEAMAGATGCIIAMRHNNYILVPIKVATSVRRVLDLRGQLWRQVREITVDLGSDVRLARKLEIRRELEAINRNRDRLHEELAKL	not soluble
MAHHHHHHMAYLPPNMAERLQMSSSSTEPTTTSSMLPAPHSSANMRHIEGLVVVPGVVKVSRSDVASQYTMPHTNNAPLLFSEPEHRAVDNSSGSNDAQLEPKDPHLGLMPHCLSCTLLTSAGAQEPDDVYGRSMPSSSAVGAVTTELECAVVPTLHASFTPGVSTSIMPAPTEAHSACGSRPLQQPRWGGNYDSGSQCVSFRGADRSNNVSGCGLRLVGDDVEWLQGSFEDSASSPREEVQLSWGHLQRQPCAGKSSAARAVPPALHDVREGTGGEKVLAAHHRFERAVQPQTQRQGVFPSADQENCQAAAMLWAAQQMAVFD	not soluble
MAHHHHHHMCGVIEGLWTRGGRVFHRYVRPSDPRRISAAAAAVHGITWETVQNCSPWPVVARELVAYMALVGADAPVSASAQLEAAQLGGQRAVHLPPLVAHNASFDARFLEHHLRRCGYQIFWHPRYPLTCTRQWAQVAYPHLANNLDALCAFLSIDWAADRAANGHDALTDATLTALLFLQMCRRWMERFGRGE	not soluble
MAHHHHHHMCREPYLLLSMHRLLLAAYWPDSDRLHCSEREWPLTEHSGAVPFMVESANGRVLPWCPWRDNSVAELLAVVRGMMELAGMKLGIVVGDRLVPD	soluble
MAHHHHHHMDDFPLSLCSSNIRETMFKVTAPLFLALTTSNAIALSRGTSVSVSSEGGKCNEIWYSNGKEMCGSPLAPQSSTVQRALPPAPAPAKKPESSLRSGDEVATQHEERGGLDLRSIASRQPSFDALSATINGERQVGRASGTAIRGGNEGSAEPSSDEGQQRTTELWSGQAEGQVKQMAEGEQRNPGSGDEGQNQGGDVAPLQVAKEGESNMKWPPAQRVILGTVKENAQKETRKDLDDLEQEANSTQVGRTTAHKRHVMLITATLSFICVQRLLV	soluble
MAHHHHHHMDFVKELKSSQDYMNNELTYGAHNYDPIPVVLKRGKGVFVYDIEDRRYYDFLSAYSSVNQGHCHPDILNAMINQAKKLTICSRAFFSDSLGVCERYLTNLFGYDKVLMMNTGAEASETAYKLCRKWGYEVKKIPENSAKIIVCNNNFSGRTLGCVSASTDKKCKNNFGPFVPNFLKVPYDDLEALEKELQDPNVCAFIVEPVQGEAGVIVPSDSYFPGVASLCKKYNVLFVADEVQTGLGRTGKLLCTHHYGVKPDVILLGKALSGGHYPISAILANDDVMLVLKPGEHGSTYGGNPLAAAICVEALKVLINEKLCENADKLGAPFLQNLKEQLKDSKVVREVRGKGLLCAIEFKNDLVNVWDICLKFKENGLITRSVHDKTVRLTPPLCITKEQLDECTEIIVKTVKFFDDNL	soluble
MAHHHHHHMDSQGPFLVIPTKRGAVPTLTPAQANAILEPSERILATSVFEAMDFVKPCIEAGMQLSTYCGLSGYKTVLTLRSSFQGLHASASSSDTAVAGDNERGRAVISFEKWRDVVKATRPTFAVAVHESLPLCEPLNKRRRVAATRSETWLANTEEASDLGCTILPSISAGCTHDGGYIDAVPRGENSYEFFQTLQALQLSPKKCTMCVAPSISVLLAAMVSNVSLLECPLPWTLAEKGVALLLPLEEATTTSPEPVVPLLDLNDNVYALDINPIAEGCDCFTCKRHCRAYLHHLLTVQEMNSDILLVMHNLAQVVLLVRAYRCASAPTREALVSRVASAL	not soluble
MAHHHHHHMDWVKVMNLIYASRDVDATTLAFNAAMSAVEKKGCLKSMLEVFEIMKKKNIKPDLVSYKLLLRLCANYHLGEHAEILFDEMVETDKLTPTYEIYALMISCFAKVGDGHRAVEFVEKLRSDPLVGEVNNWGEAGGVSGSGSADDRQHPAWRDSFAEEATTEEGAEAEGSTYTNQFKEITKKIKHIERGSSKIQYSEYANVIFACNMSNLPEQGIKYFEELLNTGKYMPSTLLLESIFDLLAKNGNYEKCLDYYNKLKDDPNFKKAINVNILNNILKALSVQGKINIIEDLWKNEFDELMLTPNEISYGYMLKVYSIVDDYEKAFKLFKEMQMKKMLSNKNIIPFVYTINAFKNCGIYNYAIYVLRVAKLLGVSSEDLLKLYNDAMVACVNAKKYDVVISLYAELITMQEKGAPSLEISISTLGFVLLAFRELDMREDFTNLKNLIIQKNYKLTPLCGQLVSEQPH	not soluble
MAHHHHHHMEKKKKESTIKISLNINTKFNESYLDEQNDIINEALIKNNNKEIIHSLNLIENIRQGTFDYKDLREVYFMNDNDLFSMLNDKKASEEKGKGKEDAHNNNNIDNKICNNDKVGDKNKKLSNNNNNNGNDLNIQIEGDQNYNFNKNNETNIFVLDNDVDKVCIIRFPFSVSKDIKKYLLNKNLDMVIQPTTLLNSRFFLIHFKNINKKFHGILLELSTHIEIHKTLDRNNLYKSNDVSQMIYVYEHNTNSKELLKKFINNNFELCGGISKKLNHFIFQNHTKLFKYHDIYFAEKLIYEYLNTPYYDYFDLYVKTLNEMHNHIIMEKENNNKQNEIVDETTDLAAILGSLDNSYNIMNLIEKQDGDIDFEALLNYDIEKENYESDVSDLLLGGTYYLQKK	not soluble
MAHHHHHHMEMGGDIVGNIMMLELETFSDEEAAYLTSPDAPHSHIVDEVVEALFENVCTAPRRCSWNTPSVRPEWKEEFRFAGEWWLSMRVLPATVNPNEYHPPLIPFLLRNVQTENQFIADLALHMRQRSSVLSLLHMDHISITPDRASVLLFEGILRNEAQNLECLSLSFCEVGAATLLLILCGLNQCRSIQPQLRYLNLSYNWIDASCSNMMAMLLERTSIRRLSLHGNRFGGSDITSFYDFLLQGCSLLEELDLSYTALTCAEVCALISCLPRMRNLEVLLLDGVEVPDNKAAALSTAIRKSNLIHVSLKGIIACNGEAYLHRIHKACQRNRAARDFLKDRSTLRYFSEGGSFFEAFARRTCEMQRLDDRALPVTYRPFVTNDPSLLPAKNL	not soluble
